Measurements reported in patent publication US20130131320A1 (published 2013).
Changes are numbered by the printed parent chain. Blank lines part the entries; values can stand above or below the binder they belong to.

Assays:
[1] = target: T1, soluble EGFR (human epithelial cell growth factor receptor 1, Her1) (human, UniProt P00533 25-645); assay: SPR
[2] = target: T1, soluble EGFR (human epithelial cell …); assay: ITC
[3] = target: T1, soluble EGFR (human epithelial cell …); assay: SPR; remark: listed apart in the source

Ka [1]: 3.5e+08 M⁻¹
Ka [2]: 4.1e+09 M⁻¹
koff [3]: 0.00085 s⁻¹
B1: h528 Fv comprising mutant VL LRL (other)
VH: QVQLVQSGAEVKKPGASVKVSCKASGYTFTSYWMHWVRQAPGQGLEWMGNIYPGSGGTNYAEKFKNRVTMTRDTSISTAYMELSRLRSDDTAVYYCARSGGPYFFDYWGQGTLVTVSS
VL: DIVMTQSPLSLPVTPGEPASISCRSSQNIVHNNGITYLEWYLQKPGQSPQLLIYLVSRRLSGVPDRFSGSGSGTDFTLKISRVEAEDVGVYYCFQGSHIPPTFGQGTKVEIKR

Ka [1]: 6.8e+08 M⁻¹
Ka [2]: 1.05e+09 M⁻¹
koff [3]: 0.00078 s⁻¹
B2: h528 Fv comprising mutant VL LRS (other)
VH: B1 VH
VL: DIVMTQSPLSLPVTPGEPASISCRSSQNIVHNNGITYLEWYLQKPGQSPQLLIYLVSRRSSGVPDRFSGSGSGTDFTLKISRVEAEDVGVYYCFQGSHIPPTFGQGTKVEIKR

Ka [1]: 4e+07 M⁻¹
Ka [2]: 2.1e+07 M⁻¹
koff [3]: 0.006 s⁻¹
B3: h528Fv WT (other)
VH: B1 VH
VL: B2 VL with L55K, R58D, S60F
